Assay results as given in patent publication US20250326817A1 (LA JOLLA INSTITUTE FOR IMMUNOLOGY, published 2025).
Where a chain is given by its changes, count along the chain named. Names and notes keep the numbering of the source.

T1: mouse BTLA, full length, fused to EGFP, on HEK293 FreeStyle cells (mouse, UniProt Q7TSA3 30-306)
T1 construct: whole, on cells; also called mBTLA; mBTLA-EGFP; not shown: EGFP fused at the C-terminus (pEGFP-N1 vector)
T1 sequence (looked up): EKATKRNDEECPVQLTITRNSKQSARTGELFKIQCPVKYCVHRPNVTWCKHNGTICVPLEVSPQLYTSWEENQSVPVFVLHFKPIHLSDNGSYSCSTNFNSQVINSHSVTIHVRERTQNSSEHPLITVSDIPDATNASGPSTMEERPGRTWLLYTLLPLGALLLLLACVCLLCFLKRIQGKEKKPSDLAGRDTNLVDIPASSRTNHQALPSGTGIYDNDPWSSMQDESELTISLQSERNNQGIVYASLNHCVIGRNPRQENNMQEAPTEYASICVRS

T2: mouse LIGHT, full length, on transfected cells (mouse, UniProt Q9QYH9 1-239)
T2 construct: whole, on cells; also called mLIGHT; mLIGHT-IRES-EGFP
T2 sequence (looked up): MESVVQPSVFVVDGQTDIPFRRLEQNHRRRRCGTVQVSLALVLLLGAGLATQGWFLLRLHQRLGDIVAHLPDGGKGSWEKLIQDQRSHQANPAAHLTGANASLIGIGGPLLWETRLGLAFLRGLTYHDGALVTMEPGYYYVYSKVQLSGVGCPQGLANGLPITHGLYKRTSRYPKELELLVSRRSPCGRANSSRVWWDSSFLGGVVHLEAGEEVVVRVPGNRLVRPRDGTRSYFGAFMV

T3: mouse BTLA, soluble protein (analyte of the Octet assay) (mouse, UniProt Q7TSA3 30-183, limits assumed)
T3 construct: The construct is not described; also called mBTLA; mBTLA-penta-His-tag
T3 sequence (looked up): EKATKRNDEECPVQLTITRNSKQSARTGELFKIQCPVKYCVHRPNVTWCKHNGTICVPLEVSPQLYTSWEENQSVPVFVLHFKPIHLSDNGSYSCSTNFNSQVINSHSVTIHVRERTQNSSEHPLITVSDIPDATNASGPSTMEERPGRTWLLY

T4: single chain homotrimeric mouse LIGHT extracellular domain (G73-V239), N-terminal HHHHHHGG, joined by two … (mouse, UniProt Q9QYH9 73-239)
T4 construct: Soluble analyte of the Octet assay; from Expi293 cells; also called mLIGHT
T4 sequence: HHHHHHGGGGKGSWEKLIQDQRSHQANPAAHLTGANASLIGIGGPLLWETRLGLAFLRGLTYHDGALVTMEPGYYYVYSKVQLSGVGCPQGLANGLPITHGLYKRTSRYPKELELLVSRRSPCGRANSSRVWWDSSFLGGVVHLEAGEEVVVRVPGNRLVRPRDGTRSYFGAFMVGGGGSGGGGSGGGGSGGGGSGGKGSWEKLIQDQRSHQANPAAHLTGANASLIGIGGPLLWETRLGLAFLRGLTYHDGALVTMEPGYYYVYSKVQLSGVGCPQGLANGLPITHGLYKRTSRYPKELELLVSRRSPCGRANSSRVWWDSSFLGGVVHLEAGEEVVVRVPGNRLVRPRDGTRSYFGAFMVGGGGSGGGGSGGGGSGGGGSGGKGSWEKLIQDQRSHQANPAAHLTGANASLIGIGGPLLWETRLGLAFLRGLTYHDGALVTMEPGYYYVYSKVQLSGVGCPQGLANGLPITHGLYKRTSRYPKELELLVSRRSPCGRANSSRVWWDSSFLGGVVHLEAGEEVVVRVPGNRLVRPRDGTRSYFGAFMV

T5: mouse CD160 residues I30-H154 with C-terminal …, refolded from E. coli inclusion bodies (mouse, UniProt O88875 30-154, biotin (mCD160-biotin in the cell staining assay; site not stated))
T5 construct: range 30-154; also called mCD160; mCD160-biotin
T5 sequence: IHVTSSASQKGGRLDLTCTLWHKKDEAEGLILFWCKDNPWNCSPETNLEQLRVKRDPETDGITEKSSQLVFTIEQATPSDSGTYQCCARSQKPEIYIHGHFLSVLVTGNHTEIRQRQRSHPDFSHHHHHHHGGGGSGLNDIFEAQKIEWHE

B1: mouse HVEM H86D, full length, fused to mCherry, on cells (receptor)
chain: QPSCRQEEFLVGDECCPMCNPGYHVKQVCSEHTGTVCAPCPPQTYTADANGLSKCLPCGVCDPDMGLLTWQECSSWKDTVCRCIPGYFCENQDGSHCSTCLQHTTCPPGQRVEKRGTHDQDTVCADCLTGTFSLGGTQEECLPWTNCSAFQQEVRRGTNSTDTTCSSQVVYYVVSILLPLVIVGAGIAGFLICTRRHLHTSSVAKELEPFQEQQENTIRFPVTEVGFAETEEETASN
notes: also called mHVEM H86D; not shown: mCherry fused at the C-terminus (pmCherry-N1 vector)
B2: mouse HVEM L90A, full length, fused to mCherry, on cells (receptor)
chain: B1 chain with D48H, L52A
notes: also called mHVEM L90A; not shown: mCherry fused at the C-terminus (pmCherry-N1 vector)
B3: mouse HVEM L94A, full length, fused to mCherry, on cells (receptor)
chain: B1 chain with D48H, L56A
notes: also called mHVEM L94A; not shown: mCherry fused at the C-terminus (pmCherry-N1 vector)
B4: mouse HVEM L94D, full length, fused to mCherry, on cells (receptor)
chain: B1 chain with D48H, L56D
notes: also called mHVEM L94D; not shown: mCherry fused at the C-terminus (pmCherry-N1 vector)
B5: mouse HVEM M56D, full length, fused to mCherry, on cells (receptor)
chain: B1 chain with M18D, D48H
notes: also called mHVEM M56D; not shown: mCherry fused at the C-terminus (pmCherry-N1 vector)
B6: mouse HVEM R43D, full length, fused to mCherry, on cells (receptor)
chain: B1 chain with R5D, D48H
notes: also called mHVEM R43D; not shown: mCherry fused at the C-terminus (pmCherry-N1 vector)
B7: mouse HVEM G72D, full length, fused to mCherry, on cells (receptor)
chain: B1 chain with G34D, D48H
notes: also called mHVEM G72D; not shown: mCherry fused at the C-terminus (pmCherry-N1 vector)
B8: mouse HVEM V74D, full length, fused to mCherry, on cells (receptor)
chain: B1 chain with V36D, D48H
notes: also called mHVEM V74D; not shown: mCherry fused at the C-terminus (pmCherry-N1 vector)
B9: mouse HVEM, wild type, full length, fused to mCherry, on HEK293 FreeStyle cells (receptor)
chain: B1 chain with D48H
notes: also called mHVEM; WT mHVEM; not shown: mCherry fused at the C-terminus (pmCherry-N1 vector)
B10: A76D_H86D_L90A (receptor)
chain: B1 chain with A38D, L52A
notes: on HEK293 FreeStyle cells; also called mHVEM A76D-H86D-L90A; not shown: mCherry fused at the C-terminus (pmCherry-N1 vector) and any vector linker
B11: A76D_H86D_L90D (receptor)
chain: B1 chain with A38D, L52D
notes: on HEK293 FreeStyle cells; also called mHVEM A76D-H86D-L90D; not shown: mCherry fused at the C-terminus (pmCherry-N1 vector)
B12: G72A-V74D (receptor)
chain: B1 chain with G34A, V36D, D48H
notes: on HEK293 FreeStyle cells; also called mHVEM G72A-V74D; not shown: mCherry reporter (and any vector linker) fused at the cytoplasmic C-terminus (pmCherry-N1)
B13: G72D-V74A (receptor)
chain: B1 chain with G34D, V36A, D48H
notes: on HEK293 FreeStyle cells; also called mHVEM G72D-V74A; not shown: mCherry reporter (and any vector linker) fused at the cytoplasmic C-terminus (pmCherry-N1)
B14: G72D-V74D (receptor)
chain: B1 chain with G34D, V36D, D48H
notes: on HEK293 FreeStyle cells; also called mHVEM G72D-V74D; not shown: mCherry reporter (and any vector linker) fused at the cytoplasmic C-terminus (pmCherry-N1)
B15: G72D-V74R (receptor)
chain: B1 chain with G34D, V36R, D48H
notes: on HEK293 FreeStyle cells; also called mHVEM G72D-V74R; not shown: mCherry reporter (and any vector linker) fused at the cytoplasmic C-terminus (pmCherry-N1)
B16: H86A-L90A (receptor)
chain: B1 chain with D48A, L52A
notes: on HEK293 FreeStyle cells; also called mHVEM H86A-L90A; not shown: mCherry reporter (and any vector linker) fused at the cytoplasmic C-terminus (pmCherry-N1)
B17: H86D-L90D (receptor)
chain: B1 chain with L52D
notes: on HEK293 FreeStyle cells; also called mHVEM H86D-L90D; not shown: mCherry reporter (and any vector linker) fused at the cytoplasmic C-terminus (pmCherry-N1)
B18: H86D-L90R (receptor)
chain: B1 chain with L52R
notes: on HEK293 FreeStyle cells; also called mHVEM H86D-L90R; not shown: mCherry reporter (and any vector linker) fused at the cytoplasmic C-terminus (pmCherry-N1)
B19: H86R-L90A (receptor)
chain: B1 chain with D48R, L52A
notes: on HEK293 FreeStyle cells; also called mHVEM H86R-L90A; not shown: mCherry reporter (and any vector linker) fused at the cytoplasmic C-terminus (pmCherry-N1)
B20: mouse HVEM A76D, full length, fused to mCherry, on cells (receptor)
chain: B1 chain with A38D, D48H
notes: also called mHVEM A76D; not shown: mCherry fused at the C-terminus (pmCherry-N1 vector)
B21: mouse HVEM G72R-V74A double mutein, full length, fused to mCherry, on cells (receptor)
chain: B1 chain with G34R, V36A, D48H
notes: also called mHVEM G72R-V74A; mHVEM^-BT/160; not shown: mCherry fused at the C-terminus (pmCherry-N1 vector)
B22: mouse HVEM H86D-L90A double mutein, full length, fused to mCherry, on cells (receptor)
chain: B1 chain with L52A
notes: also called mHVEM H86D-L90A; mHVEM^-LIGHT; not shown: mCherry fused at the C-terminus (pmCherry-N1 vector)
B23: mouse HVEM R43D-M56A-K64D triple mutation, full length, fused to mCherry, on cells (receptor)
chain: B1 chain with R5D, M18A, K26D, D48H
notes: also called mHVEM R43D-M56A-K64D; not shown: mCherry fused at the C-terminus (pmCherry-N1 vector)
B24: mouse HVEM (Q39-Q206), wild type, fused to human IgG1 and a hexa-His tag (Fc fusion)
chain (part 1 of 2): QPSCRQEEFLVGDECCPMCNPGYHVKQVCSEHTGTVCAPCPPQTYTAHANGLSKCLPCGVCDPDMGLLTWQECSSWKDTVCRCIPGYFCENQDGSHCSTCLQHTTCPPGQRVEKRGTHDQDTVCADCLTGTFSLGGTQEECLPWTNCSAFQQEVRRGTNSTDTTCSSQ
chain (part 2 of 2): HHHHHH
notes: From Expi293 cells; also called mHVEM-hIgG1; mHVEMWT; not shown: human IgG1

Each binder was assayed against T1, mouse BTLA, full length, fused to EGFP, … (assay: flow cytometry, cell-cell interaction assay).
Description: (§1) After 2˜3 days, the cells were harvested and diluted to […]. […] These cells were further recorded and analyzed by flow cytometry. […] The cells were incubated for 30 min with shaking at room temperature and washed once by PBS containing 0.2% BSA (PBS-BSA). The cells were re-suspended in 100 uL of PBS-BSA and analyzed by flow cytometry.
B1: binds. B2: binds. B3: binds. B4: binds. B5: binds. B6: binds.

Each binder was assayed against T2, mouse LIGHT, full length, on … (assay: flow cytometry, cell-cell interaction assay).
Description: as §1
B7: binds. B5: binds. B6: binds. B8: binds.

What follows are binders tested against T1, mouse BTLA, full length, fused to EGFP, … (assay: cell-cell flow cytometry (mHVEM-mCherry cells + mBTLA-EGFP cells)).
Description: as §1
B9: binds. B10: binds. B11: binds. B12: no binding. B13: no binding. B14: no binding. B15: no binding. B16: binds. B17: binds. B18: binds. B19: binds. B20: binds. B21: no binding. B22: binds.

The binders below were run against T2, mouse LIGHT, full length, on … (assay: cell-cell flow cytometry (mHVEM-mCherry cells + mLIGHT-IRES-EGFP cells)).
Description: as §1
B9: binds. B10: no binding. B11: no binding. B12: binds. B13: binds. B14: binds. B15: binds. B16: no binding. B17: no binding. B18: no binding. B19: no binding. B20: binds. B21: binds.

The binders below were run against T3, mouse BTLA, soluble protein (analyte of …) (assay: cell-protein flow cytometry (mHVEM-mCherry cells + mBTLA-His/anti-His green)).
Description: as §1
B12: no binding. B13: no binding. B14: no binding. B15: no binding. B21: no binding. B23: no binding.

These binders were tested against T4, single chain homotrimeric mouse LIGHT … (assay: Octet bio-layer interferometry, mHVEM-hIgG1 on the sensor, LIGHT in solution).
Description: (§2) The results were exported and then analyzed using Prism 5 (GraphPad Software). Final response curves were generated after subtracting the responses of the control groups.
B24 gave a Kd of 16.2 nM.

The binders below were run against T4, single chain homotrimeric mouse LIGHT … (assay: Octet bio-layer interferometry, mHVEM-hIgG1 on the sensor, mLIGHT in solution).
Description: Error bars represent results from at least triplicates. […] Ligands BTLA, CD160 and LIGHT are modeled based on the HVEM structures and are shown as labeled surfaces.
as §2
In the case of B24, the Kd is reported as 16.2 nM.

Each binder was assayed against T5, mouse CD160 residues I30-H154 with … (assay: cell-protein flow cytometry (mHVEM-mCherry cells + mCD160-biotin/streptavidin-AF488)).
Description: as §1
B10: no binding. B12: no binding. B13: no binding. B14: no binding. B15: no binding. B16: binds. B17: binds. B18: binds. B19: binds. B21: no binding. B22: binds.
